Read-outs that look alike come from different tables or passages of the source.
How the values were obtained:
[1] = precipitation of ZP1848 in solution with phosphate and NaCl, same conditions as on the column under RPC1; assay type: physicochemical
Description: Additionally, ZP1848 precipitates at neutral pH in solutions containing NaCl, phosphate, NaOH and high ionic strength.
Below in Table 4.1 various formulations of ZP1848 were prepared in 100 mM NaCl and 45 mM phosphate (the buffers are described in Example 1.12) at different pH and/or concentrations in order to reflect the same conditions in solution as present in the column under RPC1.
Additionally, it was shown that ZP1848 precipitates even at low concentrations at pH 7.5 (0.2 and 0.5 mg/mL).

[2] = cited from earlier work

Which results are given for “H-HGEGTFSSELATILDALAARDFIAWLIATKITDKKKKKK-NH2 [ZP1848]”?
precipitation in solution ([1]; neutral pH, solutions containing NaCl, phosphate, NaOH and high ionic strength): precipitates; precipitation at low concentrations ([1]; pH 7.5, 0.2 and 0.5 mg/mL): precipitates; precipitation in peptide product solution ([1]; phosphate buffer/phosphoric acid, neutral pH): precipitates; time of precipitation after sample preparation ([1]; same conditions in solution as on the column during RPC1): within minutes

For `CC[C@H](C)[C@H](NC(=O)[C@H](Cc1ccccc1)NC(=O)[C@H](CC(=O)O)NC(=O)[C@H](CCCNC(=N)N)NC(=O)[C@H](C)NC(=O)[C@H](C)NC(=O)[C@H](CC(C)C)NC(=O)[C@H](CC(N)=O)NC(=O)[C@H](CC(=O)O)NC(=O)[C@H](CC(C)C)NC(=O)[C@@H](NC(=O)[C@@H](NC(=O)[C@H](CC(N)=O)NC(=O)[C@H](CCSC)NC(=O)[C@H](CCC(=O)O)NC(=O)[C@H](CC(=O)O)NC(=O)[C@H](CO)NC(=O)[C@H](Cc1ccccc1)NC(=O)[C@H](CO)NC(=O)CNC(=O)[C@H](CC(=O)O)NC(=O)CNC(=O)[C@@H](N)Cc1c[nH]cn1)[C@@H](C)O)[C@@H](C)CC)C(=O)N[C@@H](CC(N)=O)C(=O)N[C@@H](Cc1c[nH]c2ccccc12)C(=O)N[C@@H](CC(C)C)C(=O)N[C@H](C(=O)N[C@@H](CCC(N)=O)C(=O)N[C@H](C(=O)N[C@@H](CCCCN)C(=O)N[C@H](C(=O)N[C@H](C(=O)N[C@@H](CC(=O)O)C(=O)O)[C@@H](C)O)[C@@H](C)CC)[C@@H](C)O)[C@@H](C)CC` [teduglutide, [hGly2] GLP-2], which half-life ([2]; Gly substitution at position 2, compared with native GLP-2) is on record?
The half-life was “about two”.

Which half-life ([2]; in humans) does the source give for “GLP-2 [3-33]: truncated GLP-2 [3-33] (DGSFSDEMNTILDNLAARDFINWLIQTKITD; Glucagon-like peptide 2; UniProt P01275 148-178, looked up, fragment)” here?
The half-life was about 27 min.

With “Hy-His-Ala-Asp-Gly-Ser-Phe-Ser-Asp-Glu-Met-Asn-Thr-Ile-Leu-Asp-Asn-Leu-Ala-Ala-Arg-Asp-Phe-Ile-Asn-Trp-Leu-Ile-Gln-Thr-Lys-Ile-Thr-Asp-OH [GLP-2 [1-33]]” as the compound, how does the half-life ([2]; in humans) read?
Its half-life is “around 7 minutes”.

Source: patent publication US20260116943A1, “PROCESSES FOR SYNTHESIZING GLUCAGON-LIKE-PEPTIDE 2 (GLP-2) ANALOGUES” (Zealand Pharma A/S, priority 2021, published 2026)
